Test results reported in patent US20240124607A1 (Merck Sharp & Dohme, published 2024).
Where a chain is given by its changes, count along the chain named.

How the values were obtained:
Human CEACAM6 = biological target: T1, Human CEACAM6 (human, UniProt P40199 35-320, limits assumed); assay: SPR, 37C, pH 7.4
T1 sequence (looked up): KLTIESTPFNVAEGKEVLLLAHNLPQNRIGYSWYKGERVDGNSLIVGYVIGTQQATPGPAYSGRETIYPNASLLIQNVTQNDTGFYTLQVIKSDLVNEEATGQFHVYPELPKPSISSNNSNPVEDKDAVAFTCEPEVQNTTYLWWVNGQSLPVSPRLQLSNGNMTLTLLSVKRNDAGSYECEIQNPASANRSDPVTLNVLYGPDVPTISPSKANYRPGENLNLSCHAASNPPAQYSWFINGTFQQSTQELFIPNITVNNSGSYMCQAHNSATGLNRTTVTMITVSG
Experimental: To determine the affinity and cross-reactivity of CEACAM5 TriNKET molecules, AB0411, AB0466, or AB0621 TriNKETs were captured using an anti-human Fc capture antibody (Cytiva, #BR100839) immobilized onto a Biacore CM5 standard surface sensor chip following manufacturer instructions. Human or cynomolgus CEACAM5 were titrated over captured AB0411, AB0466, and AB0621 as 2-fold serial dilutions starting from 300 nM. Association was monitored for 300 sec and dissociation was monitored for 600 sec. The assay was run at 37° C. at pH 7.4 and 6.0. The surface of the CM5 chip was regenerated with 10 mM glycine pH 1.5 for 20 sec at 100 μL/min.
Binding to human and cynomolgus CEACAM1, 6, and 8 was assessed by SPR using the same protocol as for CEACAM5 but using up to 600 and 1200 nM for titration of each protein. There were no detectable binding signals at these concentrations for AB0621. In contrast, reproducible weak binding signals were detected for AB0411 and AB0466, but these two TriNKETs also bound to different epitope(s) on the N-terminus of CEACAM5. Typical weak binding sensorgrams for AB0411 and AB0466 against human CEACAM1 and 6 indicated weak but notable signals compared to AB0621. […]

[1] = biological target: T2, human CD16A (FcγRIIIA) V158 (human, UniProt P08637 17-208, limits assumed, biotinylated in the assay of Table 21); assay: SPR, biotin-CD16A on SA chip, 25C, pH 7.4
T2 construct: also called CD16A (V158/V176)
Experimental: (§1) Binding to human and cynomolgus CD16A was assessed using biotinylated CD16A captured on a streptavidin (SA) sensor chip (Cytiva, #BR100531). AB0411, AB0466, or AB0621 was titrated from 1500 nM at 25° C. at 30 μL/min for 150 sec association followed by 300 sec dissociation. The surface of the chip was regenerated with 2 mM sodium hydroxide for 5 sec at 30 μL/min. Running buffer was HBS-EP+. […] The V158 isoform bound ˜2- to 3-fold tighter than the F158 isoform as expected.

Cyno FcγRIIIA = biological target: T3, Cyno FcγRIIIA (cynomolgus monkey, UniProt Q8SPW2 17-208, limits assumed, biotinylated); assay: SPR, biotin-CD16A on SA chip, 25C, pH 7.4
T3 construct: also called cynomolgus CD16A
Experimental: as §1

[2] = biological target: human CD16A (FcγRIIIA) F158 (human, UniProt P08637 17-208, limits assumed, biotinylated); assay: SPR, biotin-CD16A on SA chip, 25C, pH 7.4
Experimental: as §1

CEACAM5 Nterm IgV-His = biological target: T4, CEACAM5 Nterm IgV-His (human, UniProt P06731 35-144); assay: SPR, hFc capt, 37C
T4 construct: also called N-term domain of hCEACAM5
T4 sequence: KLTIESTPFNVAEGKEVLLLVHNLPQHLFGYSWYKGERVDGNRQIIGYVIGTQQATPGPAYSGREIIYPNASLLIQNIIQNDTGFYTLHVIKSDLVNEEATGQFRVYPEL
Experimental: (§2) The various hCEACAM5 protein domains were titrated over the captured antibody at 50 μL/min for 180 sec of association and 300 sec of dissociation. The assay was run at 37° C. in HBS-EP+ running buffer, pH 7.4. The surface of the CM5 chip was regenerated using 3M MgCl₂.

CEACAM5 N-A1-B1-His = biological target: T5, CEACAM5 N-A1-B1-His (human, UniProt P06731 35-322, limits assumed); assay: SPR, hFc capt, 37C
T5 sequence: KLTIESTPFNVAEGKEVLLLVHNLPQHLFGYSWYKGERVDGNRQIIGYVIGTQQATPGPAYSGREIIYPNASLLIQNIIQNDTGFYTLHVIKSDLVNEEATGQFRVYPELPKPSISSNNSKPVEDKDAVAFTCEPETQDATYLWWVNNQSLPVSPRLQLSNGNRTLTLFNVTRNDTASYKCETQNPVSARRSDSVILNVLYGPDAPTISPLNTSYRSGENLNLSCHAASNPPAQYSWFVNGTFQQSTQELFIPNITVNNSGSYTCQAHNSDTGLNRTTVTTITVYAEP
Experimental: as §2

human CD16A (FcγRIIIA) F158, sequence (P08637 17-208 limits assumed): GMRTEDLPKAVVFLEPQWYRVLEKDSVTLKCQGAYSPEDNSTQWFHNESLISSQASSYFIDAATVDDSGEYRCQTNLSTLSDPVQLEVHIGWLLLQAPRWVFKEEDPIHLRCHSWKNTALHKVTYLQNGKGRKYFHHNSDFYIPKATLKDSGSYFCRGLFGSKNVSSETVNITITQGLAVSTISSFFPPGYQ
T3 sequence (Q8SPW2 17-208 limits assumed): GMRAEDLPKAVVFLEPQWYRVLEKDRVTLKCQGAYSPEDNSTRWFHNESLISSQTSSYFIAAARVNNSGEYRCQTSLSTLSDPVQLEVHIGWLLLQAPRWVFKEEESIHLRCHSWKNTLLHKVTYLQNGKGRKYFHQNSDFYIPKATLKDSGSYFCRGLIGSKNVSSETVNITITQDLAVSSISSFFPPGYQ
T2 sequence (P08637 17-208 F176V limits assumed): as the sequence (P08637 17-208 limits assumed) above, with F160V counted along it

B1: AB0466 F3' CEACAM5 TriNKET (bispecific antibody, human IgG1, kappa)
chain: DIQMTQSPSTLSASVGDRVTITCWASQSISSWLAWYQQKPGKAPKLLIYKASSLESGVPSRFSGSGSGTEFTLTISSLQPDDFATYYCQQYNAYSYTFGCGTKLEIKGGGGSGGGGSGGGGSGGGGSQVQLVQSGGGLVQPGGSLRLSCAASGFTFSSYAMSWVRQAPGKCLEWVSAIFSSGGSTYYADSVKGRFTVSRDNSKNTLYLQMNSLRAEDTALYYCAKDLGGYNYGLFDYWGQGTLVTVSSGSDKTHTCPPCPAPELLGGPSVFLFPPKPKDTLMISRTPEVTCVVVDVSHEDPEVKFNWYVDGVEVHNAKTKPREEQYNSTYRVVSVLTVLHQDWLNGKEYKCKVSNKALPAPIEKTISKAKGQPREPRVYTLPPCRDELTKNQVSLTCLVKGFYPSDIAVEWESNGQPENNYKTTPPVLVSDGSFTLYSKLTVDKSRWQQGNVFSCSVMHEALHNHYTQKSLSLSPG
heavy: EVQLVESGGGLVKPGGSLRLSCAASGFTFSSYSMNWVRQAPGKGLEWVSSISSSSSYIYYADSVKGRFTISRDNAKNSLYLQMNSLRAEDTAVYYCARGAPIGAAAGWFDPWGQGTLVTVSSASTKGPSVFPLAPSSKSTSGGTAALGCLVKDYFPEPVTVSWNSGALTSGVHTFPAVLQSSGLYSLSSVVTVPSSSLGTQTYICNVNHKPSNTKVDKKVEPKSCDKTHTCPPCPAPELLGGPSVFLFPPKPKDTLMISRTPEVTCVVVDVSHEDPEVKFNWYVDGVEVHNAKTKPREEQYNSTYRVVSVLTVLHQDWLNGKEYKCKVSNKALPAPIEKTISKAKGQPREPQVCTLPPSRDELTENQVSLTCLVKGFYPSDIAVEWESNGQPENNYKTTPPVLDSDGSFFLYSWLTVDKSRWQQGNVFSCSVMHEALHNHYTQKSLSLSPG
light: DIQMTQSPSSVSASVGDRVTITCRASQGISSWLAWYQQKPGKAPKLLIYAASSLQSGVPSRFSGSGSGTDFTLTISSLQPEDFATYYCQQGVSFPRTFGGGTKVEIKRTVAAPSVFIFPPSDEQLKSGTASVVCLLNNFYPREAKVQWKVDNALQSGNSQESVTEQDSKDSTYSLSSTLTLSKADYEKHKVYACEVTHQGLSSPVTKSFNRGEC
B1 was tested, and the binding result (Human CEACAM6) was “no binding (tested: up to 600 and 1200 nM)”, the Kd [1] was 260 nM and the koff [1] was 0.078 s⁻¹. The kon [1] was 300000 M⁻¹ s⁻¹, the Kd (Cyno FcγRIIIA) was 140 nM and the koff (Cyno FcγRIIIA) was 0.11 s⁻¹. For the same binder, the kon (Cyno FcγRIIIA) was 790000 M⁻¹ s⁻¹, the Kd [2] was 690 nM and the koff [2] was 0.21 s⁻¹. It also gave a kon [2] of 310000 M⁻¹ s⁻¹, a Kd (CEACAM5 Nterm IgV-His) of 1.4 nM and a kon (CEACAM5 Nterm IgV-His) of 1.1e+06 M⁻¹ s⁻¹. The Kd (CEACAM5 N-A1-B1-His) was 5.5 nM and the kon (CEACAM5 N-A1-B1-His) was 240000 M⁻¹ s⁻¹.

B2: AB0621 F3' CEACAM5 TriNKET (bispecific antibody, human IgG1, kappa)
chain: DIVMTQSPDSLAVSLGERATINCKSSHSLLYGNFQNNYLAWYQQKPGQPPKLLIYWASTRESGVPDRFSGSGSGTDFTLTISSLQAEDVAVYYCQQYYSYPYTFGCGTKLEIKGGGGSGGGGSGGGGSGGGGSQVQLVQSGAEVKKPGASVKVSCKASGYTFTAYTIHWVRQAPGQCLEWMGYINPSSGYTEYNQKFKDRTTLTADTSISTAYMELSRLRSDDTAVYYCTREGGLLWFDYWGQGTLVTVSSGSDKTHTCPPCPAPELLGGPSVFLFPPKPKDTLMISRTPEVTCVVVDVSHEDPEVKFNWYVDGVEVHNAKTKPREEQYNSTYRVVSVLTVLHQDWLNGKEYKCKVSNKALPAPIEKTISKAKGQPREPRVYTLPPCRDELTKNQVSLTCLVKGFYPSDIAVEWESNGQPENNYKTTPPVLVSDGSFTLYSKLTVDKSRWQQGNVFSCSVMHEALHNHYTQKSLSLSPG
heavy: B1 heavy
light: B1 light
With B2 the binding result (Human CEACAM6) was “no binding (tested: up to 600 and 1200 nM)”, the Kd [1] was 280 nM and the koff [1] was 0.072 s⁻¹. It also gave a kon [1] of 260000 M⁻¹ s⁻¹, a Kd (Cyno FcγRIIIA) of 160 nM and a koff (Cyno FcγRIIIA) of 0.11 s⁻¹. The kon (Cyno FcγRIIIA) was 720000 M⁻¹ s⁻¹, the Kd [2] was 640 nM and the koff [2] was 0.19 s⁻¹. The kon [2] was 300000 M⁻¹ s⁻¹, the binding result (CEACAM5 Nterm IgV-His) was “no binding” and the Kd (CEACAM5 N-A1-B1-His) was 11 nM. The kon (CEACAM5 N-A1-B1-His) was 150000 M⁻¹ s⁻¹.

B3: AB0264 F3' CEACAM5 TriNKET (bispecific antibody, human IgG1, kappa)
chain: B2 chain with S210P
heavy: B1 heavy
light: B1 light
B3: no binding (tested: up to 600 and 1200 nM) (Human CEACAM6).

B4: AB0411 F3' CEACAM5 TriNKET (bispecific antibody, human IgG1, kappa)
chain: DIQLTQSPATLSVSPGERATLSCRASQSVSSSYLAWYQQKPGQAPRLLIYGASSRATGIPDRFSGSGSGTDFTLTISRLEPEDFAVYYCQQYNNWPLTFGCGTKVEIKGGGGSGGGGSGGGGSGGGGSQVQLVQSGGGLVQPGGSLRLSCAASGFTFTSYAMSWVRQAPGKCLEWVSAISGTGDSTFYADSVKGRFTFSRDNSKNTLYLQMNSLRAEDTAVYYCAKDLGWLQYGLFDYWGQGTLVTVSSGSDKTHTCPPCPAPELLGGPSVFLFPPKPKDTLMISRTPEVTCVVVDVSHEDPEVKFNWYVDGVEVHNAKTKPREEQYNSTYRVVSVLTVLHQDWLNGKEYKCKVSNKALPAPIEKTISKAKGQPREPRVYTLPPCRDELTKNQVSLTCLVKGFYPSDIAVEWESNGQPENNYKTTPPVLVSDGSFTLYSKLTVDKSRWQQGNVFSCSVMHEALHNHYTQKSLSLSPG
heavy: B1 heavy
light: B1 light
For B4, the Kd [1] was 120 nM, the koff [1] was 0.029 s⁻¹ and the kon [1] was 230000 M⁻¹ s⁻¹. For the same binder, the Kd (Cyno FcγRIIIA) was 100 nM, the koff (Cyno FcγRIIIA) was 0.075 s⁻¹ and the kon (Cyno FcγRIIIA) was 730000 M⁻¹ s⁻¹. For the same binder, the Kd [2] was 370 nM, the koff [2] was 0.086 s⁻¹ and the kon [2] was 220000 M⁻¹ s⁻¹. It also gave a Kd (CEACAM5 Nterm IgV-His) of 0.31 nM, a kon (CEACAM5 Nterm IgV-His) of 1.4e+06 M⁻¹ s⁻¹ and a Kd (CEACAM5 N-A1-B1-His) of 1.2 nM. It also gave a kon (CEACAM5 N-A1-B1-His) of 360000 M⁻¹ s⁻¹.
